Results on three molecules are retold here after patent US20250388664A1 (BIOARCTIC, published 2025).

As a reminder, the koff is the rate constant with which the complex falls apart. What is called kon is the rate constant with which the complex forms. The term IC50 denotes the concentration that gives 50% inhibition. As a reminder, the EC50 (read off the curve) is the concentration needed to bring the measured effect to its halfway point.

Like-named read-outs stand apart in the source and are kept apart here.

Assay [1] addresses T1, Aβ1-28 monomer (UniProt P05067 672-699).
T1 construct: range 1-28 (Aβ numbering)
The assay can be described thus: SPR, antibody immobilised. How it is done:
Affinity and specificity evaluation and KD determination by surface plasmon resonance: Binding interactions between antigens and antibodies were evaluated by SPR using a Biacore 8K instrument (Cytiva) according to standard procedures. […] Additionally, the specificity towards different N-truncated forms of Aβ (Aβ2-28, Aβ3-28, Aβ4-28 and AβpE11-28 monomers) was evaluated.
(§1) Single cycle kinetics with the antibodies immobilized on a CM5 chip was used to measure the binding of the antibodies to the different monomers (AβpE3-40, AβpE11-28, Aβ1-28, Aβ2-28, Aβ3-28 and Aβ4-28). For the measurements, 5 μg/ml of analyte antibody was immobilized on the chip. […] Regeneration of the surface between cycles was done by injecting 30 μl 3 M MgCl₂. The binding data was fitted to a 1:1 interaction model.
(§2) In all SPR experiments, 1×HBS-EP+ (Cytiva, cat. no. BR100669) was used as running buffer and to dilute antibodies and target antigens. Experiments were performed at 25° C.
Background: In SPR one partner is held on a chip, and binding of the other changes the refractive index at the surface.

The target in assay [2] is T2, Aβ2-28 monomer (UniProt P05067 673-699).
T2 construct: range 2-28 (Aβ numbering)
The assay can be described thus: SPR, antibody immobilised. How it is done:
as §1, §2

Assay [3] deals with T3, AβpE11-28 monomer (UniProt P05067 682-699, pyroglutamate at position 11 (N-terminal residue)).
T3 construct: range 11-28 (Aβ numbering)
T3 peptide (looked up): EVHHQKLVFFAEDVGSNK
The assay can be described thus: SPR, antibody immobilised. How it is done:
as §1, §2

Assay [4] has as its target T4, AβpE3-40 monomer (UniProt P05067 674-711, pyroglutamate at position 3 (N-terminal residue)).
T4 construct: range 3-40 (Aβ numbering); Synthetic peptide (Bachem/Anaspec), verified monomeric by SEC; also called monomeric AβpE3-40
The assay can be described thus: SPR, antibody immobilised, monomer injected, 1:1 fit. How it is done: as §1, §2

Assay [5] concerns the target T5, Aβ3-28 monomer (UniProt P05067 674-699).
T5 construct: range 3-28 (Aβ numbering)
The assay is described as above. The protocol: as §1, §2

Assay [6] concerns the target T6, Aβ4-28 monomer (UniProt P05067 675-699).
T6 construct: range 4-28 (Aβ numbering)
The assay is described as above. How it is done: as §1, §2

The target of assay [7] is T4, AβpE3-40 monomer. The assay can be described thus: inhibition ELISA, antigen titrated in solution, AβpE3-40 coat. The protocol:
(§3) For binding to Aβ1-40 and AβpE11-40, the positive control 4G8 (Covance #SIG-39320, epitope: amino acids 17-24 of Aβ) was included. The recombinant antibodies were incubated at a fixed concentration (0.05 μg/ml) with titrating concentrations of the different Aβ antigens. After incubation for 45 min at 900 rpm to reach equilibrium, the antibody-Aβ samples were added to a blocked and washed ELISA plate with an AβpE3-40 coat (0.5 μM). The samples were incubated on the plate for 25 min without shaking followed by washing, incubation with detection antibody, another washing step and finally incubation with alkaline phosphatase substrate.
On the technique in general: In an ELISA, binding on a coated surface is turned into a signal by an enzyme label.

The target in assay [8] is T7, Aβ1-40 monomer (UniProt P05067 672-711).
T7 construct: range 1-40 (Aβ numbering)
The description is as above. How it is done: as §3

Assay [9] deals with T8, AβpE11-40 monomer (UniProt P05067 682-711, pyroglutamate at position 11 (N-terminal residue)).
T8 construct: range 11-40 (Aβ numbering)
T8 peptide (looked up): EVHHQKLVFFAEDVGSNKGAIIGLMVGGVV
Described as above. The protocol:
as §3

Assay [10] has as its target T9, AβpE3-42 protofibrils (UniProt P05067 674-713, pyroglutamate at position 3 (N-terminal residue)).
T9 construct: range 3-42 (Aβ numbering); Soluble aggregates made from AβpE3-42 peptide, purified in the void peak of SEC; also called AβpE3-42 PF
The description is as above. How it is done: as §3

For assay [11], the target named is T9, AβpE3-42 protofibrils. The experiment in a line: SPR, protofibrils immobilised, antibody injected, 1:1 fit, apparent. The protocol:
(§4) Single cycle kinetics was also used to measure binding of the antibodies to AβpE3-42 protofibrils. […] For binding to AβpE3-42 protofibrils, the antibodies were injected over the chip using a 3-fold dilution series in five steps starting at 700 nM, using 2 min injection of every antibody concentration and a 60 min dissociation time. Regeneration of the surface between cycles was done by injecting 30 μl 10 mM glycine-HCl pH 1.7. The binding data was fitted to a 1:1 interaction model.
as §2

Assay [12] has as its target T10, Aβ1-42 monomer (UniProt P05067 672-713).
T10 construct: range 1-42 (Aβ numbering)
The experiment in a line: ELISA: Aβ monomer captured on a polyclonal anti-Aβ42 coat, hybridoma supernatant diluted 1/243, anti-mouse IgG-HRP.

The target of assay [13] is T11, Aβ2-42 monomer (UniProt P05067 673-713).
T11 construct: range 2-42 (Aβ numbering)
Described as above.

Assay [14] addresses T9, AβpE3-42 protofibrils. The experiment in a line: SPR, protofibrils immobilised, antibody injected, 1:1 fit, apparent; binding to AβpE3-42 protofibrils (not monomer); KD in pM. The protocol: as §4, §2
For assay [15], the target named is T12, hTfR1 (recombinant, construct not specified) (human, UniProt P02786 89-760, limits assumed).
T12 construct: also called biotinylated hTfR1
The assay can be described thus: ELISA on coated hTfR1, biotinylated scFv detected with streptavidin-HRP, after 48 h in mouse serum or PBS at 37°C or 4°C. The protocol: After 48 h incubation, binding of the scFv to hTfR1 was evaluated by ELISA. […] The reaction was stopped by 1:1 addition of 0.5 M sulfuric acid (#35354-1L, Honeywell). Optical density at 450 nm was obtained using a microplate reader (Spark, Tecan) and the collected data was plotted using GraphPad Prism software (GraphPad Software Inc).

Assay [16] deals with T13, truncated hTfR1 of SEQ ID NO:122 (human, UniProt P02786 122-760).
T13 construct: also called human TfR1; Human TfR1
The assay can be described thus: SPR, TfR1 amine-coupled, Fab injected, 1:1 fit. How it is done: (§5) The interaction was measured using the single cycle kinetics method with a contact time of 120 s at a flow rate of […] followed by a dissociation time of 600 s. Regeneration of the surface between cycles was done by injecting 3M MgCl₂. The binding data were fitted to a 1:1 interaction model. The Fabs were diluted in HBS-EP+ (Cytiva, #BR100669). Experiments were performed at 25° C.

The target in assay [17] is T14, truncated cTfR1 of SEQ ID NO:123 (cynomolgus monkey, UniProt Q5RDH6 122-760 (Pongo abelii entry)).
T14 construct: also called cynomolgus TfR1
T14 chain: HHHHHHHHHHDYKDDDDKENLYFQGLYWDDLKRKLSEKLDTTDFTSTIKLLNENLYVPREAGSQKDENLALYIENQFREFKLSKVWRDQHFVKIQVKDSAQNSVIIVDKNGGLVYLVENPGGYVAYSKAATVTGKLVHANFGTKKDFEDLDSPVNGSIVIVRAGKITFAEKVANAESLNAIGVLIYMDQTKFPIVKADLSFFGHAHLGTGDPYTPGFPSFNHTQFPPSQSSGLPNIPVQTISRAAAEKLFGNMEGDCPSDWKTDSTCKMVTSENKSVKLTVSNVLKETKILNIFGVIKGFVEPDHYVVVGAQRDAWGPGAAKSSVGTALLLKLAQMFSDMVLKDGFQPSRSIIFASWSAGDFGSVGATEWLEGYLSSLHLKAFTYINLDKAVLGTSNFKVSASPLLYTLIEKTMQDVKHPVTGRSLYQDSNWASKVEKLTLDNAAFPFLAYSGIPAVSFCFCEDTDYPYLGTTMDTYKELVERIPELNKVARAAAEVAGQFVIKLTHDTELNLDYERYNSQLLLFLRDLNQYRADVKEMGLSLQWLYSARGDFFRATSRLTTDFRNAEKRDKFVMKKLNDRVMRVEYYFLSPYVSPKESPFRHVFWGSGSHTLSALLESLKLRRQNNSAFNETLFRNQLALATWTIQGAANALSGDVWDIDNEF
The experiment in a line: SPR, TfR1 amine-coupled, Fab injected, 1:1 fit. The protocol:
as §5

Assay [18] concerns the target T13, truncated hTfR1 of SEQ ID NO:122. The assay can be described thus: SPR, TfR1 amine-coupled, Fab injected, 1:1 fit. The protocol:
(§6) Binding of the purified Fabs to human and cynomolgus TfR1 was evaluated using either SPR (FIG. 44) or indirect ELISA (FIG. 45). For SPR, a Biacore 8K instrument (Cytiva) was used. […] The Fabs were injected over the chip using a 2-fold dilution series in four steps starting at 100 nM. The interaction was measured using the single cycle kinetics method with a contact time of 120 s at a flow rate of 30 μl/min followed by a dissociation time of 1000 s. Regeneration of the surface between cycles was done by injecting 3M MgCl₂. The binding data was fitted to a 1:1 interaction model. The Fabs were diluted in HBS-EP+ (Cytiva, #BR100669). Experiments were performed at 25° C.
The source holds these as a separate data set.

Assay [19] addresses T14, truncated cTfR1 of SEQ ID NO:123. The assay can be described thus: SPR, TfR1 amine-coupled, Fab injected, 1:1 fit. The protocol: as §6
Assay [20] addresses T15, ectodomain of human TfR1 (His10-hTfR1; SEQ ID NO:110) (human, UniProt P02786 89-760).
T15 construct: also called ectodomain of hTfR1
The assay can be described thus: indirect ELISA: plate coated with 1 µg/ml hTfR1 ectodomain, Fab in 1:3 serial dilution, anti-human IgG F(ab')2-HRP. How it is done:
For the indirect ELISA, half area 96-well plates (Corning, #3690) were coated with 1 μg/ml recombinant ectodomain of hTfR1 (SEQ ID NO:110) in PBS overnight at 4° C. The coated plates were blocked using Pierce protein-free blocking solution (Thermo Fisher Scientific, #37572) for 1 h at room temperature with shaking and washed four times in PBS containing 0.1% TWEEN-20. Serial dilutions (1:3) of various expressed constructs in incubation buffer (1% BSA, 0.1% TWEEN-20 in PBS) were incubated for 1 h at room temperature. […] Following four wash steps, K-Blue® Aqueous TMB substrate (Neogen, #331177) was added to the wells for 15 min at room temperature before the reaction was stopped with 1:1 dilution of 0.5 M H₂SO₄. The optical density at 450 nm was recorded (Spark, Tecan) and background signal was subtracted before analysis.

T5 sequence (P05067 674-699): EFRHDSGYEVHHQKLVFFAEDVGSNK
T9 sequence (P05067 674-713): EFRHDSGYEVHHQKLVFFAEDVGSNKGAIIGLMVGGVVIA
T6 sequence (P05067 675-699): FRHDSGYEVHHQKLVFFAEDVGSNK
T10 sequence (P05067 672-713): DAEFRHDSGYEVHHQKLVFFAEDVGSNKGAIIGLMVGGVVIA
T1 sequence (P05067 672-699): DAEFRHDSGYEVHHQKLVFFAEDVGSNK
T2 sequence (P05067 673-699): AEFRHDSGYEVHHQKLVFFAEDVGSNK
T11 sequence (P05067 673-713): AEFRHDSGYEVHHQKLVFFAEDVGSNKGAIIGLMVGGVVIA

B1: Pyr12.2 (antibody, V domains shown)
VH: EVQLQQSGPELVKPGTSIKMSCKASGYSFTGFTMNWVKQSHGKNLEWIGLINPYNGVTTYNQKFKGKATITVDKSSRTAYMELLSLTYEDSAVYYCTREGNWEGVYWGQGTPVTVSA
VL: EVVLTQTPLTLSVTIGQSASISCKSSQSLLDSNGKTYLHWFLLRPGQSPKRLIYLVSILDSGVPDRFTGSGSGTDFTLKISRVEAEDLGIYYCVQGTHFPFTFGSGTKLEIKR
notes: Murine anti-AβpE3 antibody; also called recombinant antibody Pyr12.2; hybridoma clone Pyr12.2
On to B1, for which the binding result in assay [1] was “no binding (tested: 2500 nM)”; in assay [2], “no binding (tested: 2500 nM)”; in assay [3], “no binding (tested: 2500 nM)”; in [12] it was “no binding”; in assay [13] it was “no binding”. Further, the Kd worked out at 0.57 nM in assay [4], 42.6 nM in [5], 6760 nM in assay [6] and 0.0536 nM in [14]. Moreover, the koff in [4] was found to be 4.12e-05 s⁻¹; in assay [5], 5.77e-05 s⁻¹; in assay [6], 0.481 s⁻¹; in assay [11], 3.31e-06 s⁻¹. In addition, the association rate constant (kon) in assay [4] is 71800 M⁻¹ s⁻¹; in assay [5], 1750 M⁻¹ s⁻¹; in assay [6] it was 78200 M⁻¹ s⁻¹; in assay [11] it was 63100 M⁻¹ s⁻¹. In addition, the IC50 was 1.52 nM in assay [7], more than 5000 nM in [8], more than 5000 nM in [9] and 8.43 nM in [10].

B2: h26D3wt_DS, VL-first (His6 and Avi tags, biotinylated) (scFv)
scFv: DIQMTQSPSSVSASVGDRVTITCKSSQSLLYSTNQKNYLAWYQQKPGKAPKLLIYWASTRESGVPSRFSGSGSGTDFTLTISSLQPEDFATYYCQQYFIYPRTFGCGTKVEIKGGGGSGGGGSGGGGSGGGGSEVQLVQSGAEVKKPGSSVKVSCKASGYIFTDYNMDWVRQAPGQCLEWIGDINPDYDTTSYNEKFKGRATLTVDKSTSTAYMELSSLRSEDTAVYYCARGGYSGSSYYHPMDYWGQGTLVTVSS
modifications: biotin on the Avi tag (site directed in vivo biotinylation)
As for B2, the half-maximal effective concentration (EC50 (read off the curve)) in assay [15] is approximately 0.02 µg/mL.

B3: h26D3-Fab (Fab, V domains shown)
VH: EVQLVQSGAEVKKPGSSVKVSCKASGYIFTDYNMDWVRQAPGQGLEWIGDINPDYDTTSYNEKFKGRATLTVDKSTSTAYMELSSLRSEDTAVYYCARGGYSGSSYYHPMDYWGQGTLVTVSS
VL: DIQMTQSPSSVSASVGDRVTITCKSSQSLLYSTNQKNYLAWYQQKPGKAPKLLIYWASTRESGVPSRFSGSGSGTDFTLTISSLQPEDFATYYCQQYFIYPRTFGQGTKVEIK
notes: His-tagged Fab from ExpiCHO; also called humanized 26D3 Fab
With B3, the Kd was found to be 3.2 nM in [16], 5.8 nM in [17], 10 nM in assay [18] and 12 nM in assay [19]. Further, in assay [16], the off-rate (koff) was 0.0045 s⁻¹. Also, in assay [16], the kon is 1.2e+06 M⁻¹ s⁻¹. Also, in assay [20], the concentration for a half-maximal effect (EC50 (read off the curve)) was approximately 0.3 nM.
